These results are taken from US20190257845A1, “METHOD FOR CALORIMETRIC DETERMINATION OF THE LIPOPROTEIN LIPASE ACTIVITY IN HUMAN PLASMA ENVIRONMENT” (Tallinn University of Technology, priority 2016, published 2019).

Broadly, the Kd is the constant that tells how readily two partners part at equilibrium.

In test [1] the target is T1, lipoprotein lipase (LPL) (Bos taurus, UniProt P11151).
T1 construct: Bovine LPL was purified from milk; from tissue; host or cells: bovine milk
T1 sequence (P11151 29-478): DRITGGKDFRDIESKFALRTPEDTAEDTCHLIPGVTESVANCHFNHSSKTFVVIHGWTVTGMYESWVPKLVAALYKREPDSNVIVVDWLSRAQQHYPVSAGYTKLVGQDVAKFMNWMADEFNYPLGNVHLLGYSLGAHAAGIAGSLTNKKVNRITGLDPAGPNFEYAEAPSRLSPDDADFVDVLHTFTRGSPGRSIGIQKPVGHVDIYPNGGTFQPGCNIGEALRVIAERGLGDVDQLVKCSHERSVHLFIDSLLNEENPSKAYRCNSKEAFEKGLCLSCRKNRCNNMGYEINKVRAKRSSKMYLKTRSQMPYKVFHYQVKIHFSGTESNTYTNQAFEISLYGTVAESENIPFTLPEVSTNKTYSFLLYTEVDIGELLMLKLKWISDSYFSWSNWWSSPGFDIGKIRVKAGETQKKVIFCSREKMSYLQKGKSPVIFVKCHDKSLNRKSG
Briefly: ITC measurement of LPL activity in human plasma with added regulators or inhibitors. It counts as biochemical, bovine. The conditions noted are these: for effect on activity of LPL in plasma: LPL 0.6 nM. The protocol:
Preparing the reagents—Bovine LPL was purified from milk (Bengtsson-Olivecrona & Olivecrona 1991) and dialysed to buffer containing 10 mM TRIS, pH 8.5 (4° C.), 4 mM sodium deoxycholate. Stock solutions of 0.5 mg/ml LPL were stored at −80° C. The N-terminal coiled-coil domain of human angiopoietin-like protein 4 (ANGPTL4), residues 26-184, was expressed in E. coli and purified as described (Robal et al. 2012). Full-length human angiopoietin-like protein 3 (ANGPTL3) expressed in Sf 21 cells was obtained from R&D Systems (USA). Apolipoprotein C-III0 was from human blood plasma (Bengtsson-Olivecrona & Sletten 1990). Apolipoprotein C-II and apolipoprotein A-V were expressed in E. coli and purified as described (Shen et al. 2010; Beckstead et al. 2003). A synthetic peptide corresponding to the N-terminal domain of human GPIHBP1, residues 23-51, was bought from Caslo (Denmark). The sequence of the peptide was as follows: […]. Antibodies (goat IgG) to human hepatic lipase were raised in a goat against hepatic lipase isolated from human post-heparin plasma (Olivecrona & Olivecrona 2000). The IgG fraction was isolated using Protein-A columns and the final preparation contained 5 mg protein per milliliter in 20 mM Na-phosphate buffer and 0.15 M NaCl (pH 7.4).
Sample preparation—Before experiments the human plasma samples were diluted 1.2 times with TRIS buffer pH 7.4 or with the additions specified for each experiment. The final concentration of TRIS was 20 mM in all cases. Stock solutions of LPL were diluted in cold 10 mM TRIS, pH 8.5, containing 4 mM sodium deoxycholate. In this buffer, LPL is stable for a long period of time, even at low protein concentrations The final concentration of deoxycholate during incubations with plasma or lipoproteins was 10 to 100 times lower than the initial. […] In experiments with post-heparin plasma, antibodies to hepatic lipase (in PBS) or the same volume of PBS only were added (180 μl of IgG or PBS was mixed with 360 μl of post-heparin plasma) and the mixture was then incubated for 2 hours on ice prior to experiments (Olivecrona & Olivecrona 2000). All samples were degassed under vacuum for 15 minutes before the ITC experiments.
(§1) ITC measurements—Most of the experiments were performed on an Nano ITC model 5300 (TA Instruments, USA) at 25° C. A MicroCal Auto-iTC200 (GE Healthcare) instrument was used for experiments regarding relationship between total heat production and released fatty acids. In a typical experiment performed by Nano ITC, the lipase substrate (plasma, Intralipid 20% or VLDL) with or without added ligands was placed into the calorimetric cell (1035 μl) and the syringe (250 μl) was filled with LPL-containing solution (bovine LPL or post-heparin plasma) (see FIG. 1A). MilliQ water was loaded into the reference cell (1032 μl). The stirring speed in the sample cell was 400 rpm. The baseline was left to stabilize for at least 1 hour before injections of LPL or post-heparin plasma. In all experiments, the first injection was 2 μl and after that single or sequential injections of 10 to 25 μl were made. The interval between the injections was from 200 s to 500 s. In experiments performed by MicroCal Auto-iTC200, 400 μl of lipase substrate (plasma), 400 μl of equilibration buffer (20 mM TRIS, pH 7,4) and a sufficient volume of LPL (0.8 μM) were placed on the loading plate. The calorimetric cell (200 μl) was rinsed with equilibration buffer and loaded with 200 μl of substrate in an automated fashion. The syringe was loaded with 40 μl of LPL-containing solution. The stirring speed in the sample cell was 600 rpm and the baseline was stabilized automatically. The first injection of LPL was 0.2 μl and the second injection was 2 μl. The experiment time was 1 hour to allow full hydrolysis of plasma triglycerides.After each experiment the Nano ITC sample cell was washed with the following solutions, one after the other: MilliQ water, 2% SDS, 40 mM NaOH and finally 95% ethanol. […]
A general note: ITC needs no label: the signal is the heat of the interaction.

In test [2] the target is T1, lipoprotein lipase (LPL). Briefly: ITC measurement of Intralipid hydrolysis by LPL, activation by apoC-II. It counts as biochemical, bovine. The conditions noted are these: Intralipid substrate. The protocol: The substrate mixture composition was as follows: 1 mg triglyceride/ml Intralipid, 10 mg/ml BSA, 10 IU/ml heparin, 0.15 M NaCl, 10 mM TRIS pH 7.4. […] Final concentration of LPL was 1.2 nM in all experiments.
Heat rate points at 200 s were obtained from FIG. 5a. The data were fitted using the following equation (Quinn et al. 1983): […]
as §1, with “[…] Raw ITC data were analysed using” for “The experiment time was 1 hour to allow full hydrolysis of plasma triglycerides.After each experiment”, “NanoAnalyze (TA Instruments) Or MicroCal Origin (GE Healthcare).” for “Nano ITC sample cell was washed with the following solutions, one after the other: MilliQ water, 2% SDS, 40 mM NaOH and finally 95% ethanol.”

With `CCCCCCCCCCC[C@@H](C[C@@H]1OC(=O)[C@H]1CCCCCC)OC(=O)[C@H](CC(C)C)NC=O` [THL, tetrahydrolipstatin, reference compound], at lipoprotein lipase (LPL) [1] (10 μM THL, human plasma, LPL 1 nM, unchanged afterwards), the “immediate drop of the activity of LPL” value is on record as 80%. In addition, the “THL concentration at which inhibition of LPL was detectable” value on lipoprotein lipase (LPL) [1] (human plasma, LPL 1 nM) was 90 nM. Turning to “QQEEEEEDEDHGPDDYDEEDEDEVEEEET [N-terminal peptide of GPIHBP1, synthetic peptide corresponding to the N-terminal domain of human GPIHBP1, residues 23-51, reference compound]”, the “protection of LPL from inactivation by ANGPTL4” value in the test with lipoprotein lipase (LPL) [1] (100 nM ANGPTL4, LPL 0.6 nM, TG 1 mM) is on record as “could not protect LPL from inactivation”.

B1: apoC-II: Apolipoprotein C-II expressed in E. coli; activator of LPL (protein, UniProt P02655 29-101, looked up)
Apolipoprotein C-II: DEMPSPTFLTQVKESLSSYWESAKTAAQNLYEKTYLPAVDEKLRDLYSKSTAAMSTYTGIFTDQVLSVLKGEE
As for B1, the “estimated maximal activation factor of LPL” value in the test with lipoprotein lipase (LPL) [2] (1.2 nM LPL, apoC-II 0 to 1000 nM, heat rate at 200 s, model of Quinn et al. 1983) is 4.2±1.2. The Kd with lipoprotein lipase (LPL) [2] (1.2 nM LPL, heat rate at 200 s, model of Quinn et al. 1983, read-out: Kd value (affinity of apoC-II for LPL)) came out at 22 ± 8 nM. Also, in the test with lipoprotein lipase (LPL) [2] (LPL not stable without apoC-II or below 100 nM), the “effect on stability of LPL” value is “stabilized LPL”.

B2: apoA-V: apolipoprotein A-V expressed in E. coli (protein, UniProt Q6Q788 24-366, looked up)
Apolipoprotein A-V: RKGFWDYFSQTSGDKGRVEQIHQQKMAREPATLKDSLEQDLNNMNKFLEKLRPLSGSEAPRLPQDPVGMRRQLQEELEEVKARLQPYMAEAHELVGWNLEGLRQQLKPYTMDLMEQVALRVQELQEQLRVVGEDTKAQLLGGVDEAWALLQGLQSRVVHHTGRFKELFHPYAESLVSGIGRHVQELHRSVAPHAPASPARLSRCVQVLSRKLTLKAKALHARIQQNLDQLREELSRAFAGTGTEEGAGPDPQMLSEEVRQRLQAFRQDTYLQIAAFTRAIDQETEEVQQQLAPPPPGHSAFAPEFQQTDSGKVLSKLQARLDDLWEDITHSLHDQGHSHLGDP
Regarding B2, the “effect on activity of LPL in plasma” value is reported as “did not change the activity of LPL” with lipoprotein lipase (LPL) [1] (10 nM apoA-V, TG 1 mM) and “some inhibition was observed” with lipoprotein lipase (LPL) [1] (100 nM apoA-V, TG 1 mM).

B3: ANGPTL3: Full-length human angiopoietin-like protein 3 expressed in Sf 21 cells, from R&D Systems (protein, UniProt Q9Y5C1 1-460, looked up)
chain: MFTIKLLLFIVPLVISSRIDQDNSSFDSLSPEPKSRFAMLDDVKILANGLLQLGHGLKDFVHKTKGQINDIFQKLNIFDQSFYDLSLQTSEIKEEEKELRRTTYKLQVKNEEVKNMSLELNSKLESLLEEKILLQQKVKYLEEQLTNLIQNQPETPEHPEVTSLKTFVEKQDNSIKDLLQTVEDQYKQLNQQHSQIKEIENQLRRTSIQEPTEISLSSKPRAPRTTPFLQLNEIRNVKHDGIPAECTTIYNRGEHTSGMYAIRPSNSQVFHVYCDVISGSPWTLIQHRIDGSQNFNETWENYKYGFGRLDGEFWLGLEKIYSIVKQSNYVLRIELEDWKDNKHYIEYSFYLGNHETNYTLHLVAITGNVPNAIPENKDLVFSTWDHKAKGHFNCPEGYSGGWWWHDECGENNLNGKYNKPRAKSKPERRRGLSWKSQNGRLYSIKSTKMLIHPTDSESFE
modifications: full-length
notes: Full-length human angiopoietin-like protein 3 expressed in Sf 21 cells, from R&D Systems
Regarding B3, the “concentration at which effect on LPL in plasma was detectable” value with lipoprotein lipase (LPL) [1] (human plasma) is reported as “detectable already at nanomolar concentrations”.
